The values below come from publication PMC7618050, “Structure of the Bacteriophage PhiKZ non-virion RNA Polymerase transcribing from its promoter p119L”.

The data set has as its target PhiKZ nvRNAP GP55 (beta'-like);PhiKZ nvRNAP GP74 (beta'-like);PhiKZ nvRNAP GP71-73 (beta-like);PhiKZ nvRNAP … (Pseudomonas phage phiKZ;Pseudomonas …, UniProt Q8SDA7;Q8SD88;PDB:8QUE_2;Q8SD39;Q8SD94 1-420;1-677;1-700;1-543;1-521, ||||). The data set can be described thus: cryo-EM structure (3.3 A); 10 mM MgCl2; 1 mM ATP, CTP, GTP, no UTP; Zn2+ in GP55; 40 mM Tris-Cl pH 8.0, 10 mM MgCl2, 5 mM DTT, 1 mM ATP/CTP/GTP, 30 min at 37 C, nvRNAP 0.1 mg/mL with scaffold 1:1; native PAGE 4-20% TGX at 4 C. Particulars: protein: recombinant;recombinant;recombinant;recombinant;recombinant; tags: ;;;;; copies: 1;1;1;1;1; label: Cy5 at 5' end of RNA (printed Cy5-GUAGA); non-template/template DNA with mismatched bubble; RNA hybrid with template (6 bp resolved).

B1: p119L RNA/DNA template with RNA extended by 3 nt (mixed)
DNA 1: AGTAATTTTAGTGAATGTATTTGCTATATTGCTATCCTAACAGTTCCCAAAAGCCTAAAGTTACAATATAGGTAC
DNA 2: GTACCTATATTGTAACTTTAGGCTTTTGGGAACTGTCTACATAGCAATATAGCAAATACATTCACTAAAATTACT
RNA: GUAGACAG
On to B1, for which the binding result is given as “binds”.
